The values that follow come from article PMC9784774.

The target in experiment [1] is MAb MSL-109. Kind of experiment: ELISA. Particulars: read off a plot.
Experiment [2] deals with recombinant gH/gL/gO trimer (human cytomegalovirus | human cytomegalovirus strain VR1814). Kind of experiment: SPR; Biacore X100, CM5 chip, RT, 1:1 binding model; methods: antibody (4 μg/mL) captured by anti-human Fc IgG to about 100 RU, pentamer or trimer in five 2-fold dilutions injected at 30 μL/min, 90 s association, 600 s dissociation (the legend of Fig. 5 tells the reverse orientation). A general note: Surface plasmon resonance follows binding to a sensor surface in real time, without labels.

For “recombinant gH/gL/UL128/UL130/UL131A pentamer (wild type) gH:W168A”, the percent of parent in experiment [1] was found to be 3%.

For the substance “recombinant gH/gL/UL128/UL130/UL131A pentamer (wild type) gH:D446A”, in experiment [1], the percent of parent stood at 46%.

As a reminder, the Kd is the concentration at which binding is half-saturated. The koff is a measure of how fast the partners let go of each other. By kon is commonly meant the rate constant with which the complex forms. As for MAb MSL-109 (antibody), in experiment [2], the Kd came to 20.7 nM, the off-rate (koff) came to 0.00987 s⁻¹ and the kon came to 476000 M⁻¹ s⁻¹.

Take “recombinant gH/gL/UL128/UL130/UL131A pentamer (wild type) gH:P171A”: the percent of parent in experiment [1] came out at 6%.
